Source: the domain aggregation screens of Martell et al. (2025)

Assay: soluble fraction after stress (log2 fold change); higher = more stays soluble; pooled small domains, quantitative proteomics
Conditions: stress: 75 degC
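Also: 20 min heating vs room temperature control held 20 min.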

Sequence | soluble fraction (log2)
HMALTARDLGLTHRQADVLHLVLQGKPVKLIARDLGLAEGTVKSHVSAVLRALNVTTRTQAIVAAGRLGLM | -2.18
HMAMDITLPLAEVRRQSLEQIERQYLNELMSKHLGRINRAAEAAGITTRQLHKLLTKYSIRKEDFK | -1.25
HMAMESDELETLVDQLIVDHPDEWSRFVGGDDGDRKKMQGFFTGQIMKATKGQADGRAVAQLLGQKSA | 0.0717
HMAMLSKREAEILKLTAKGHSSTDIAQRLTISVNTVEFHRRRIMQKLNAANVAEAVGKAAELGLFF | -2.47
HMAMSAGEVVERIREHVGHPATIKELMRVLAIPNEERYRFRRRIKQLVEAGELIRIRGNRYGLADR | -2.83
HMAMTITKIEKTSQQKIYYFTDSGRVFKKMSDRSATIAVDDRVELEGGVLGSKFFVTANGSRVKVKEV | -2.9
HMAMYSREKLKKLREDRGLTQYELAKIAGISVVTLNKIESSDSAKPFVKTLNKIAQALGVGIDELS | -1.77
HMAMYYVIGGDGQQYGPIDEATVRGWLGEGRVSAASLSFKTGEAQWIPLRDRPELADVLATA | -0.137
HMANKLSEQIYGSILKDIVNGVYAPREFISEAQIAAKYGVSKAPVKEAMHILASEGFLLSYPKRGYMVN | -0.889
HMANKQLQEKLKNYISENGSLSSAAKAIGLSPATLSTYLKDKYEGNVANVETRLTEIFETVEAANNLL | -0.353
HMANKTISMTTLKLVIQQLSKGISRQSISAQYHISRNTIKKYEKRIKAMDMKIEDILKLSDEEISNLLQ | -3
HMANLNFDMSQIVASRYQEKAAELGVTAPSLARTDYNTQEQATYEFVAREIIADYYDDRVAPFNDLIPE | -0.191
HMANNPISMIKIRQILRLHIQGRSKLQIAAQTGISRNTLKKYLKEFEASKLTYDEISELSDKDLEDLFIK | -2.86
HMANTSAVIKQPGLVKLFAQHFVRNGFNAMKAAEAAGFVRPSPTFVRNLADSKPVKDAISELLGPYNDA | -0.183
HMANWRVGQTINALVSDRMPSGGLLLTVGRQSFVTTRDIPVQPGARIMLEVQQVEPKLVLRLVSA | -1.8
HMAPADLSPEERVVLDALALEPVHVDALAAKLGRRSEELLTSLTLMEMRGLAVAHAGSRYSRATMT | -0.14
HMAPEEIPLDRVVRLVEQGRVESIVVTGERLEVTLQNGTVYGSTKENGVGFMETLDRYQVPLEQRDFSYEV | -0.148
HMAPELRSDAQMRRLWALAKENGLDEVGFRAFISDATGREVESTKSLTATEAHRLIEELEAP | -0.0689
HMAPEPFIVQITASSLNVRKGPGTSYAVAQTVSKGQVFTIVQQQGGWGKLKSGAGWISLKYTAR | -1.74
HMAPEQWYVLTSGQLPKGPYRLRHIVAMSKGDNWLVARKGAEQWTPLRHLPEFRQAQEANEYIQAIS | -1.48

Sequence | soluble fraction (log2)
HMAPFSGVEPREWDSLVERGRQSGEVHAEDVTHVLRHVELTGDVLTDVQSKMAEHGITIDDA | 0.161
HMAPGASEVPDLTSLPAREALLRLTKLGLLPEMEGTGRLVRQQPAAGTRVPKGSKVHLVFEPG | 0.123
HMAPIEVPYNVFRQQVVEGNVESVATRADTVQGYFETPVTLPARPDAAAAEPVTVERFSTTLPSF | 0.27
HMAPKRIVLRFGKDISDKPIIYYLVKDYDLVINILKANVNPNKEGTLVLELSGENYDKGIEFLISQGVTVQ | -1.8
HMAPKVHLLKVPVDKIREIIGTGGKVIRQITEETGAKIDISDDGSVKVSSPDQSSIDAATTWITGIIAE | -0.0092
HMAPLATLEAGEDGSVKLPNLAGHSIREVAAALGGAKLSLIPIGSGTSWKQTPAPGAVLHSGDTVTVYF | 0.243
HMAPNDELTRQVISVLSGTPQQAFNYKQISKKLNINDSSERRMVSNILRELAGKGEIVEVYQGKYRSKAPA | -0.0901
HMAPPTAEFFAHLPAEALSAVRRSVEEGNARGIDEAILRVETLDGEAGRVLRGLAARYEYGRILELTQR | 0.103
HMAPQSAAAILRYLSSGAIRGVGPATAQRIVERFGTDSLEIIQNRPKELAAINGISINKALSISEEYAKQY | -0.741
HMAPREELIAIHEALDKLEREDPQVSQLVKLRYFVGMTMAEAADAMDLKKRAAEALWTYGKAWLHREIKKN | -3.24
HMAPRIVTIQIPVDKIRDVIGPGGKVIRSIIERTGVKIDVEDDGRVNVASADGDSAQRAIAIIQELTAT | -0.101
HMAPSIPSGADIRAAREAAGINLRDFARIVDGPGIAIWSRYETGTPIRVKSISPEVWQKVRDFISQHG | -0.801
HMAPTADSVPFVIRSVVGGAQPFIVLEDGSKLLVGGVYRKYRLVAVENTRIIFEGPRTAIVT | -1.51
HMAPTPAGNLRSLKSEIVNYTRQSSTAYVYTFKDLSSGELYTARASRYYAAAGDTAYISTAAGAITDM | 0.121
HMAPTVPEVVRLEEGAARSAIEAAGLSVGSVEFRASSDPAGTVLATRPIAGRKVRPSSAVDLVLSDGRTP | 0.166
HMAPVEEWAKASVMEDPTLVTETMARIFAQQGQIGKARKAYRHLALTYPAKSTYFAAQLKKLNQR | -0.473
HMAPVLTATVNTTSGKLNMRAAASATSAKLTSIPRGATVTVLEKGTTWSRISYGGYTGYVMTQYLKFD | -0.523
HMAPVVELEDVTIVRGKATLLDRVNWVIDETDRWVIVGPNGAGKTTLLQVVSANLHPTSGKAMILDEVL | 0.176
HMAQILEPSVALKKLLELKQAGFEDETLVGWIRKVEFTRPLTPDDLLEWKGAGISQAVIRAAM | -0.302
